Assay results taken from the nanobody polyreactivity screen of Harvey et al. (2022).

Experiment: yeast display, Sf9 membrane polyspecificity reagent, FACS + sequencing; frameworks hold sequencing errors
Outline: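 Using colony PCR, genes from sorted yeast display clones were amplified, then sequenced on MiSeq at 2 × 250 and filtered by CDR length. The clones had been stained with 10% biotinylated, detergent-solubilized Sf9 membrane reagent for 1 hour at 4 °C and sorted by FACS into low and high (top ~1%) gates on anti-HA and streptavidin fluorescence. Polyreactivity labels come from the gate of origin.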

| Sequence | polyreactivity (PSR sort gate) |
| --- | --- |
| QVQLEESGGGLVQAGGSLSLSCAASGSILIYNAMGWYRQAPGKERELVAGISRRGASTYYADSVKGRFTISRDNEKKTVYLQMNRLKPEDTAVYYCAALGKYIVAWSGDYWGQGTQVTVSS | low polyreactivity |
| QVQLEESGGGLVQAGGSRRLSCAASGSIFIANAMGWYRQAAGKEREFVAGISASGSSTYYADSVKVRFTISRDNAKNTVYLQMNILKPEDTAVNYCAAGSYYWGQGTQVTVSS | high polyreactivity |
| QVQLEESGGGLVQAGGTLRLSCAASGRIFSGYAMGWYRQAPGKERELGAAISSSGGSTYYADSVQGRFTISRDNAKNTVYLQMNSLKPEDTAVYYCAASRSRYSVNWYNYWGQGTQVSVSS | high polyreactivity |
| QVQLEESGGGLVQAGRSLRFSCAASGRIFPWYTMGWYRPAPGKERELVAVISSGGRTHYADSVKGRFTISRDNAKNTVYLQMNSLKPEDTAVYYCAGESRYQRYDYWRQGTQVTVSS | high polyreactivity |
| QVQLEESGGGLVQAGVSLRLSCAASGRIFLSNAMGWYRQAPGKEREFVAAISWRGGSTYYADSVKGRFTISRDNAKNTVYLQMNSLKPEDTAVYYCAVDVRYYYGRSYDYWGQGTQVTVSS | high polyreactivity |
| QVQLEESGGGLVQARGSLRLSCAASGSTFNSYAMGWYRQAPGKERELVAAISSTGGNTYYADSVKGRFTISLDNAKNTVYLQMNSLKPEDTAVYYCNARRYGKVVRSSYNYWGQGTQVTVSS | high polyreactivity |
| QVQLEESGGRLVQAGGSIRLTCAASGSIFASNTKGWYRQAPGKERELVAGITKIGSSTYYADSVKGRFTISRDNAKNTVYLQMNSLKPEDTAVYYCNAYGPNIYSSRYDYWGQCTQVTVSS | low polyreactivity |
| QVQLEESGGRLVQAGGSLRLRCAASGLMYTRYVMGWYRQAPGKERELVAVISSGGSTYYADSVKGRFTISRDNAKNTVYLQMNSLIAEDTAVYYCAAYLRSSHVTYDYWGQGTQVTVSS | high polyreactivity |
| QVQLEESGGRLVQAGGSLRLSCAASGSTFSNNAMGWYRQAPGKERELVAAIRTSGGRTYYADSVKGRFTISRDNAKHTVYLQMNSLKPEDTAVYYCAKRWVYRYGYEYWGQGTQVTVSS | high polyreactivity |
| QVQLEESGLGLVQAGGSLRLSCAASGFTFYGNAMGSYRKAPGKEREFVAAISSSGASTRYADSVKGRFTISRDNAKNTVYLQMYSLKPEDTAVYYCAADAPAWILEAYGYWGQGTQVTVSS | low polyreactivity |
| QVQLEESGRGLDQAGVSLRLSCAASVSTFAGYAMGWYRQAPVKERELVATITYSGGSTYYADSVKGRFTISRDNAKNTVYLQMNSLKPEDTAVYYCAKKASDWWGYEYWGQGTQVTVSS | low polyreactivity |
| QVQLEESGRGLVQAGGSLRLSCAASGFTFNWYAMGWSSQATGKERELVATINSGGSTYYADSVKGRFTISRDNAKNTVYLQMNSLKPEDTAVYYCNRTHRRRYVKSAYNYWGQGTQVTVSS | low polyreactivity |
| QVQLEESGVGLVQAGGSLRLSSAASGNIFVRYSMGWYRQARGKERELVAAISWSGGRTYYADSVKGRFTISRDKAKNSVYFQMNSLKPEDTAVYYCAAGVPKIGQAGYDYWGQGTQVTVSA | high polyreactivity |
| QVQLEESRGGLVQAGGSLRLSCAASGLNFRSNAMGWYRQAPGKERELVAAISSSGGSTYYADSVKGRFTISRENAKNTVYLQMNSLKPEDTAVYYCAAEDPADQYDYWGQGTQVTVSS | high polyreactivity |
| QVQLEESRGGLVQAGGSLRLSCAASGLTSRQYAMGWYSQAPGKERELVAAITLRDGSTYYADSVKGRFTISRDNAKNTDYLQMNSLKPEDTAVYYCARRYLGLYSHFDYWGQGTQVTVSS | high polyreactivity |
| QVQLEESRGGLVQAGGSLRLSCAASGNIFGSNAMGWYRQAPGKERGLVAAISGSNGGTYYADSVKGRFTISRDYAKNTVYLQMNSLTPEDTAVYFCAAVWYLEDHHDYYYWGQGTQVTVSS | low polyreactivity |
| QVQLEESVGGLVQAGGSLRLSCAASGRIFRGYAMGWYRQAPGKETELVATISAIGGSTYADSVKGRFTISRDNAKNTVYLQKNSLKPEDTAVYYCNVRKVYRYQFRFEYWGQGTQVTVSS | high polyreactivity |
| QVQLEESVGGLVQAGGSLRLSCAASGSILLWNAMGSYREAPGKERELVAAISSSGTSTYYADSVKGLFTISRDNAKNTVYLQMNSEKPEDNAVYYCAADQSEFYAIYYYWGQGTQVTVSS | low polyreactivity |
| QVQLEESVGGLVQAGGSLRLSCAASVFIFYKKNMGLYRQAPGKERELVAAITDGDHTNYADSVKGRFTISRDNAKNTVYLQMNSLKPEDTAVYYCAADYAWNYAFGYWGQGTQVTVSS | low polyreactivity |
| QVQLEESWGCLVQAGGSLRLSCAASGYTFVNYAMGWSRQAPGKEREFVAAISRSGGSTYYADSVKGRFTISRDNAKNTDYLQMHSLKPEDTAVYYCALRGYPPYKYYYWGQGTQVTVSS | high polyreactivity |
| QVQLEETGGGLVQAGGSLLLSCEASGLTIHPYAMGWYRHAPGKERELVAAISSRGTSTYYADSVKWRFTISRDTAKNTVYLQMNSLKPEDTAVYYCAARHGPRAEAMYYWGQGPQVTVSS | high polyreactivity |
| QVQLEETGGGLVQAGGSLRLSCSASGRTLYYYAMGWYRQAHGKDRELVAAISKRGGSTYYADSVQGRFTISRDNAKNTVYLQINSLKPVDTAVFYCAASSGLDSWGQGTQVTVSS | high polyreactivity |

| Sequence | polyreactivity (PSR sort gate) |
| --- | --- |
| QVQLEETGRGLVQAGGSLRISSAASGGIFAHYVMGWYRQAPGKARELVAAISASGGSTYYADSVKGRFTISRDNAKNTVYLQMNSLKPEDTAVYYCAAYYLAWFADRYKTVGSAMDYWGQVTQVTVSS | low polyreactivity |
| QVQLEGSGGGLVQAGGSLRLSCAASGSIFSTNAMGWYRKAPGKERELVASISSGGGSTYYADSVKGRFTISRDTAKKTVYLQMNSLKPEDTAVYYCARRIGHGSRPYWLETWRYPYEYWGQGTQVTVSS | low polyreactivity |
| QVQLEVSGGGLDQAGGSLRLSCAASGFTFVYYVMGCYRQAPGKQWELVAAINAGGGSTYYADSVKGRFTISRDNAKNTVYLQMNSLKPEDTAVYYCNARVRVRLGRNWSSYYYWGQGTQVTVSS | high polyreactivity |
| QVQLGESGGALVQAGGSLRLSCAASGSIYWYKDMGWYTEATGKEMELVAAINSGGDTNYADSVKGRFTISRDNAKNTVYLQMNSLKPEDTAVFYCAATLLSRFYLSNRRSAYNYWGQGTLVTVSS | high polyreactivity |
| QVQLGESGGCLGQAGGSLRLSCAASGYTFPYNVMGWYRQAPGKERELDAAITSSGGSTYYADSVKGRFTISRDNAKNTVYLQMNRLKPEDTAVYYCNAYPSSSLFDYWGQGTQVTVSS | low polyreactivity |
| QVQLGESGGCLVQAGGSLRLICAASGFIFDRYVMGWYRQAPGKESELVAAINRSGGSTYYADSVKGRFTISRDNAKNTVYLQMNSLKRVDTAVYYCADVRPGSFTVEGYYCGQGTQVTVSS | high polyreactivity |
| QVQLGESGGGLLQAGGSLRLICAASGSIFSPYDMGWYRHAPGKERVLVAAITGSGASTYYADSVKGRFSISRDNAKNTVSLEMNSLKPEETAVYYCAAVSKYYTTWTSGYWGQGTQVTLSS | low polyreactivity |
| QVQLGESGGGLVQAGGILRLSCAASGSTFFYYAMGWYRQAPGKERELVATINYNGGSTSYADSVKGRFTFSRDNAKNTLYLQMISLIPEDTAVYYCAADLWVWYYKPYDYWGQGTQVTVSS | low polyreactivity |
| QVQLGESGGGLVQAGGSLLLSSAASGFIFHNYPMGWYRQAPVKERELVAAISWSGSRTYYADSVKGRFTISRDNAKNSVYLQMNSLKPEDTAVYYCNKAPSWWDVRVPFDYWGQGTQVTVSS | low polyreactivity |
| QVQLGESGGGLVQAGGSLRLICAASGFTFYDYAMGWYRQEPGKETEFVAAITRSGSSTYYADSVKGRFTISRDNAKNTVYLQMNSLKPEDTAVYYCAVGPFRRRGHYPTYYRYGYWGQGTQVTVSS | high polyreactivity |
| QVQLGESGGGLVQAGGSLRLSCAASGFIFRYYGMGWYRQAPGKERELVAAISRGGGSTYYADSVKGRFTISRDNAKNTVYLQMNSLKPEDTAVYYCATRRDPDYDYWGQGTQVTVSS | high polyreactivity |
| QVQLGESGGGLVQAGGSLRLSCAASGFTFVHNAMGWYRQAPGKERELVAAISSSGGRTYYADSVKGRFTISRDNAKNTVYLQMNSLKPDDTAVYYCATVNRYGPSYGYWGQGTHVTVSS | high polyreactivity |
| QVQLGESGGGLVQAGGSLRLSCAASGFTFYTYAMGLYRQAPGKERELVATISSGGRTNYADSVKGRFTISRDNAKNTVYLQMNSLKPEDPAVFYCNASPPTLEGYWGQGTQVTVSS | low polyreactivity |
| QVQLGESGGGLVQAGGSLRLSCAASGIIYKYAMGWYRQAPGQERELVATITWSDCSTYYADSVKGRFTISRDNAKNTVSLQMNSLKPEDTAVYYCAADDYYGYDYWGQGTQVTVSS | low polyreactivity |
| QVQLGESGGGLVQAGGSLRLSCAASGITFGRKTMGWYRQAPGKERELVAAIDSGGNTYADSVKGRFTISRDNAKNTVYLQMNSLKPEDTAVYYCAVDGGEFSSYGYWGQGTQVTVSS | low polyreactivity |
| QVQLGESGGGLVQAGGSLRLSCAASGITFWSYAMGLYRQAPGKERELVATIRWSGGGTYYADSVKGRFTISRDNAKNTVYLQMNSLKPEDTAVYYCNADDYGHPPYDYWGQGTQVTVSS | high polyreactivity |
| QVQLGESGGGLVQAGGSLRLSCAASGRIFLRNVMGWYRPAPGKERELVAAISLSGASTYYADSVKGRFTISRDNAKNTVYLQMNSLKPEDTAVYYCAADITILSDYWGQGTQVTVSS | low polyreactivity |
| QVQLGESGGGLVQAGGSLRLSCAASGRIFTSYPMGWYRQAPGKERELVAAISRSGGSTYYADSVKGRFTISRDNAKNTVYLQMNSLKPEDTAVYYCAKARVVAGYDYWGQGTQVTVSS | high polyreactivity |
| QVQLGESGGGLVQAGGSLRLSCAASGRIFVKYAMGWYRQAPGKERELVAAISKSGGSTYYADSVKGRFTISRDNAKKTVYLQMNSLKPEDTAVYYCATRSREQYSVSYRLDFWGQGTQVTVSS | low polyreactivity |
| QVQLGESGGGLVQAGGSLRLSCAASGRTFYSYAMGWYRHAPWKERELVAAISASGGRTYYADSVKGRFTISRDNEKNTVYLQMNSLKPEDTAVYYCAAYPWYRMWGQGTQVTVSS | high polyreactivity |
| QVQLGESGGGLVQAGGSLRLSCAASGRTFYVYAMGWYRQAPGKERELVASIRRSGGITYYADYVKGRFTISRDNAKNTVYLLMNSLKPEDSAVYYCNARRGPGRREYDYWGQGTQVTVSS | high polyreactivity |
